# ± gives the half width of the 95% confidence interval.
# Assays:
# [1] = folding stability dG unfold from trypsin proteolysis; higher = more stable
# Procedure, shortened: (§1)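 K50 was inferred by Bayesian fitting of sequencing counts obtained after protease digestion of designed mini-proteins. Unfolding free energy was derived by comparison with a sequence-predicted unfolded-state K50 and a shared folded-state K50, for each protease or both combined. The mini-proteins were under 80 residues, had no cysteine, were carried in a PA-tagged cDNA display construct, and were kept only if AlphaFold2 dimer inter-PAE exceeded 15.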
# [2] = folding stability dG unfold (combined trypsin and chymotrypsin); higher = more stable
# Procedure, shortened: as §1
# [3] = folding stability dG unfold from chymotrypsin proteolysis; higher = more stable
# Procedure, shortened: as §1
Sequence,folding stability dG unfold [1],folding stability dG unfold [2],folding stability dG unfold [3]
SAGGSAGGSARVFIVITYQNPGDGKPRQITIPIDIKDGKITLDDLKELFPGYPITNISIFPLSAGGSAGGSA [r18_494_TrROS],3.5 ± 0.14 kcal/mol,3.65 ± 0.13 kcal/mol,3.58 ± 0.12 kcal/mol
SAGDVKIDIHYDEDGYIRVTVPYKSPHEAREEADELARWLAKQFGPKNIDINVEPHPNGMLVIRIPIKKSAG [r5_772_TrROS],2.17 ± 0.099 kcal/mol,2.62 ± 0.12 kcal/mol,3.05 ± 0.082 kcal/mol
SAGGSAGGSALDSLVPDIDLRVRVEPVPDDPSILRADVELSDGLVLEVEFLPSGVARVSLSGKGSAGGSAGG [r6_122_TrMRF],-0.0307 ± 0.084 kcal/mol,-0.0927 ± 0.058 kcal/mol,-0.246 ± 0.11 kcal/mol
SAGGSAGGSAGGKTLTLVFKTKEEAEEAAKKLGFKKVEVKEFKNEDGEKYLVVKIELKPSAGGSAGGSAGGS [r10_494_TrROS_Hall],2.43 ± 0.058 kcal/mol,2.94 ± 0.22 kcal/mol,3.1 ± 0.047 kcal/mol
SAGLDEEAYRNGLTVYLTSRLPGPDVLRPQWFDVTPEGDGFTYNVALPDGVPVNLEVLSRKVLSPEELLSAG [r14_427_JUSTAS],-0.489 ± 0.51 kcal/mol,0.0205 ± 0.19 kcal/mol,0.149 ± 0.32 kcal/mol
SAGGSAGGSKLRLVLKFKTPEEAEEAARKLAEELKKKEGVKEVKVSVVKVNGEYYVVVEVEKESAGGSAGGS [r12_7_TrROS_Hall],2.53 ± 0.27 kcal/mol,3.72 ± 0.25 kcal/mol,4.15 ± 0.11 kcal/mol
SAGGPGRMREREFEIEFPFEPGQSIEDALRELIGLPPGIQIEDIKVEVDPEDGWVKISVTITVYDPNDSAGG [r13_828_TrROS],1.22 ± 0.042 kcal/mol,1.29 ± 0.15 kcal/mol,1.29 ± 0.071 kcal/mol
SAGGSAGGEATEGTLIVGGKPVRVTVERTPEGGRIATVELPNGVTVVARLNPVTRGAEILEVVESAGGSAGG [r6_290_TrMRF],0.773 ± 0.05 kcal/mol,1.17 ± 0.13 kcal/mol,1.45 ± 0.086 kcal/mol
SAGGSAGGSAGGLLEELKAKGYTVLSTPVPSPPDGVPTRTVLAKKGEGTVTFVVPAALLSAGGSAGGSAGGS [r10_35_JUSTAS],-0.172 ± 0.18 kcal/mol,0.287 ± 0.23 kcal/mol,0.525 ± 0.17 kcal/mol
SAGGSAGSYLVRVRIRRPEDGKELADAVFEVPPDEPVTAEAILKELGIPPEEAKNIEIEVEVFELGSAGGSA [r15_665_TrMRF],2.26 ± 0.049 kcal/mol,2.75 ± 0.061 kcal/mol,3.05 ± 0.031 kcal/mol
SAGGSAGGSGSLLEKLGLEPNSTVTVTVTPEEAEKIRAEPRVKEIKREPTPEDTYLYTITVVASAGGSAGGS [r12_750_JUSTAS],-0.705 ± 0.32 kcal/mol,-0.302 ± 0.28 kcal/mol,0.0205 ± 0.2 kcal/mol
SAGGMIAPDEKVLVKVTLSEGTTSRELEFEFEVPPGATEEELKQRVIDEIPEEPRKNWKVEVEIKPVSAGGS [r16_321_JUSTAS],0.918 ± 0.056 kcal/mol,0.596 ± 0.21 kcal/mol,0.198 ± 0.24 kcal/mol
SAGGSAGGSKPGEVYEVKVKIKDKETGKYYEVKVKVYRLEDGTLLIEVDGKIFEVPVKDIEIESAGGSAGGS [r12_790_TrROS_Hall],3.25 ± 0.2 kcal/mol,3.99 ± 0.11 kcal/mol,4.2 ± 0.082 kcal/mol
SMVVPVLIEKPYTSPEELEEFKKEAEELVKKLAEETGYPIKVLETKYTTDPNTNVVSLTLVVEIVSPELNSA [r9_105_JUSTAS],1.97 ± 0.1 kcal/mol,2.45 ± 0.17 kcal/mol,2.6 ± 0.14 kcal/mol
SAGGSAGGSAGGEIEVKEGEVVLVRLPDGTLLLYDKNTRRLYRFRFKDGKLEVEELELPESAGGSAGGSAGG [r7_527_TrROS_Hall],3.35 ± 0.06 kcal/mol,4.03 ± 0.12 kcal/mol,4.356 ± 0.039 kcal/mol
SAGGSIEELAREKALEEHKKTGEKNYPFTFEFEIVSSYEFAPDGTPVASSEFPFKITLKFKLPPKKKSAGGS [r16_156_JUSTAS],1.44 ± 0.024 kcal/mol,2.43 ± 0.12 kcal/mol,2.88 ± 0.069 kcal/mol
SMMKIRIVNKETKEEIEEIEIEKNEDGSYTIKIKIKKNGKTYEIEIKLPKGMKIEELLKKLGIEKAEIEPSA [r9_492_TrROS_Hall],1.55 ± 0.049 kcal/mol,1.79 ± 0.11 kcal/mol,1.98 ± 0.11 kcal/mol
SAGGSAGGSPIKIEFPPGIKEIEPIENDPNKTIMFRFPDYLVRIRINPKNGKIDIEIVPPGDMSAGGSAGGS [r12_858_TrROS],1.94 ± 0.028 kcal/mol,1.82 ± 0.11 kcal/mol,1.9 ± 0.027 kcal/mol
SAGGSDTVVLDFTVTVDGKPYTVRVTLTRNPPTGEITVPVEIESANPEDAVPAREVADALVERLLSSAGGSA [r2_259_TrMRF],1.21 ± 0.028 kcal/mol,1.56 ± 0.076 kcal/mol,1.78 ± 0.075 kcal/mol
SAGGSAFKGMPPEQVKRVIEIDHPNGKDIYIVRYKGPGHMMIFPPKEGKPIYIPMPLDEIKEFLLSSAGGSA [r15_810_TrROS],0.337 ± 0.054 kcal/mol,0.548 ± 0.094 kcal/mol,0.672 ± 0.13 kcal/mol
SKKVKEITIEGAPPGAKVTITVEEKGDKLIVRVEVERNGKTETFEVEMTLDELKALLDAGYTIRITEVIPSA [r9_1021_TrROS_Hall],2.04 ± 0.15 kcal/mol,1.99 ± 0.35 kcal/mol,2.12 ± 0.086 kcal/mol

Sequence,folding stability dG unfold [1],folding stability dG unfold [2],folding stability dG unfold [3]
SAGGMMEVEEREVEIELELEPGQSIEEALRELLGLEEGDEIVDVEVEVDPETRKVKIRVVILRPPEEESAGG [r13_828_TrROS_Hall],4.24 ± 0.39 kcal/mol,3.68 ± 0.52 kcal/mol,2.79 ± 0.2 kcal/mol
SAGGSAGGMVTSSVSALPDGSYRLTITYPDGTVLTFEFDSEEEVAALLAELAEALPADAAVPLASAGGSAGG [r6_464_JUSTAS],1.64 ± 0.059 kcal/mol,1.71 ± 0.065 kcal/mol,1.65 ± 0.046 kcal/mol
SAGGSAGGSAGGGTAEELAKELEDLGYKVKLEPEGDYLLLTVTDPDNDKPYVILLDPETISAGGSAGGSAGG [r7_0_TrMRF],1.25 ± 0.067 kcal/mol,0.991 ± 0.035 kcal/mol,0.776 ± 0.028 kcal/mol
SAGGSAGGSAGGSKKKKKKKKKKVVKLTVLIEKDGELYLVEIEFDKDGKIVSISVEKLPSAGGSAGGSAGGS [r4_192_TrROS_Hall],2.12 ± 0.16 kcal/mol,3.27 ± 0.32 kcal/mol,4 ± 0.27 kcal/mol
SAGRIEVYQDPNMLRVIEIPLPNGREIVIYRPPGYYHIEIENPNNNKQIPIMIPMEPGDIKKIIKEFINSAG [r5_820_TrROS],1.18 ± 0.046 kcal/mol,1.33 ± 0.11 kcal/mol,1.38 ± 0.081 kcal/mol
SAGGSSSMVTRTPSTSTVTVKRGNGPVTVSLPTTVVTRPDGSRTLETTVDTKDPAGNPAATTVTPAPSAGGS [r16_581_JUSTAS],0.0362 ± 0.1 kcal/mol,0.643 ± 0.093 kcal/mol,0.98 ± 0.048 kcal/mol
SAGGSAGGSAGSVTLPKNQVGVSVESYEVTLPDETGESVTRYKITLRFAETGLSAEFYAGSAGGSAGGSAGG [r17_266_TrMRF],1.2 ± 0.047 kcal/mol,1.26 ± 0.22 kcal/mol,1.34 ± 0.25 kcal/mol
SAGGKVVTVEVELENGVRVTVEFVEEDGYLALKVTVEVRLPAPPVTTADGREKEVTRRLELVILLPKESAGG [r13_780_TrROS_Hall],2.72 ± 0.14 kcal/mol,3.05 ± 0.13 kcal/mol,3.17 ± 0.15 kcal/mol
SAMTKTETFTFDDVEITVTTTEVTLPNGEKKDVYTLTKYTVDPSTGTTTPSSKTFSSKEEMEAALKASLSAG [r14_500_JUSTAS],3.6 ± 0.27 kcal/mol,3.97 ± 0.16 kcal/mol,4.036 ± 0.04 kcal/mol
SAGGSASNLKVTYKITIGSTTITVTLPEGSEKELKKIPNAEVTPISEIEPAPPPILYFKFENNNLVSAGGSA [r15_443_JUSTAS],0.739 ± 0.047 kcal/mol,1.09 ± 0.089 kcal/mol,1.25 ± 0.17 kcal/mol
SAGAPGEVTVTVVRRPRVETEEERRRRRAPPPPVVTLTLKVPPGWVVRRVAFNADGEIVSVELYRRDDLSAG [r5_750_TrROS_Hall],1.38 ± 0.029 kcal/mol,2.54 ± 0.06 kcal/mol,3.03 ± 0.031 kcal/mol
SAGGSAMITVDPGEKTVTVEIDLPVYKSYTYPGGETKAYPLELPEEEAKKVADEIAEAFKKKLEGESAGGSA [r15_365_JUSTAS],-0.499 ± 0.25 kcal/mol,0.134 ± 0.24 kcal/mol,0.49 ± 0.25 kcal/mol
SAGGSAGGSAGDKNGKPPPKIEIVPIRMSFRFPELGWWIEIDIYVIKDPAIMISISLYPYSAGGSAGGSAGG [r11_883_TrROS],3.61 ± 0.22 kcal/mol,4.91 ± 0.35 kcal/mol,5.25 ± 0.17 kcal/mol
SAGGSAGGSAGGGDFEKVKVRFRYVNPDGGPERDIEIEVEARKEDIPRLLKELKDAGLIESAGGSAGGSAGG [r7_618_TrMRF],0.982 ± 0.054 kcal/mol,1.23 ± 0.099 kcal/mol,1.25 ± 0.15 kcal/mol
SYSTSTVTVPVAADEIDKAKEIAKELAEKLPPNSRVTFNMPAPDGSTFTVEVTVNPDGTITVTVSDSLPAVS [r1_350_JUSTAS],1.55 ± 0.041 kcal/mol,1.34 ± 0.087 kcal/mol,0.986 ± 0.13 kcal/mol
SAGGSAGGMVRFDPAGGRLFLDGVPVELSEVLSVESLEEEGRVRVEALLVDGSRLEFEIPKEALSAGGSAGG [r6_682_JUSTAS],1.73 ± 0.036 kcal/mol,2.13 ± 0.029 kcal/mol,2.323 ± 0.021 kcal/mol
SMTFVLPYPKEGKTITVTYPDLESAVSSSGVATFQDPALLAQVIAALPSSVIVKEIKKNPDGTYTLTVAASA [r9_997_JUSTAS],0.773 ± 0.043 kcal/mol,0.483 ± 0.1 kcal/mol,-0.066 ± 0.24 kcal/mol
SAGGSADPIRTISGPVPLEEIEANIKKLLKENPNLDAAVFYIPEIGSKITIYFKNGKIVKIEIDLSSAGGSA [r15_166_TrMRF],2.88 ± 0.084 kcal/mol,4.59 ± 0.16 kcal/mol,4.79 ± 0.13 kcal/mol
SAGGSAGGSAGGGVEVLSAERRRIPETGLVLVVIREKEPLKPIVVLMPEEDAVVFLKHFSAGGSAGGSAGGS [r10_988_TrMRF],0.14 ± 0.094 kcal/mol,0.703 ± 0.091 kcal/mol,0.92 ± 0.1 kcal/mol
SAGGSAGGSAGKFKIKVFTHPDGYALALIEVPLGDKPVLILTLIKFPEDGNAEAETFIFPSAGGSAGGSAGG [r11_555_TrMRF],2.06 ± 0.053 kcal/mol,2.84 ± 0.13 kcal/mol,3.25 ± 0.077 kcal/mol
SAGSRTVTLTFYRPLSRPPGGAPVVREAERTVTLNLPDDTLSEEEIEALAEELRAEHPDVEVEITIDDSAGG [r19_369_JUSTAS],0.664 ± 0.049 kcal/mol,1.18 ± 0.17 kcal/mol,1.41 ± 0.092 kcal/mol

# — the supplement of paper PMC12764529
